# Experimental data as given in the DeepSol protein solubility set.
# Experiment: soluble on expression in E. coli; label from the status in PepcDB or PDB records
row,Sequence,soluble on expression in E. coli
1,MRKLVVGSRRSKLALTQSQQFIDKLKAVEPNLEIEIKEIVTKGDRIVDKQLSKVGGKGLFVKEIQHELFEKNIDMAIHSLKDVPSVIPEGLTLGCIPDRELPFDAYISKTHTPLSQLPEGSIIGTSSLRRGAQILSKYPNLEIKWIRGNIDTRLEKLQTEDYDAIILAAAGLRRMGWSDDIVTSYLDRDTLLPAIGQGALGIECRSDDEELLTLLSKVHNDEVAKCVTAERTFLAEMDGSCQVPIAGYATISDQNEIEFTGLIMTPDGKERFEYTMNGTDPVELGKTVSNKLKEQGAYEIIKRLNEQH,not soluble
2,MRKNVSDLEYTTWFAPVKPLGVQEGSLLLGVRNSFTKDWFRDHYLELLLAALRSLGAEHPQVEFQVLPAAQDALLLPNDPPPAPEAAAPTPKTKAAPTPPPSTPGDNRKTLNPKYTFENFVVGPNNNLAHAAALAVAESPGKAYNPLFIYGDVGLGKTHLMHAVGHYLAERFPEKRIEYVSTETFTNELINAIRDDKTTQFRNRYRSVDLLLVDDIQFLAGKERTQEEFFHTFNALYESNKQIILSSDRPPKDIQTLEGRLRSRFEWGLITDIQSPEYETRVAILKMNAEQGHITIPQEVLELIARQVTSNIRELEGALMRVVAFASLNNVPFSRAAAAKALSNVFAPQEAKVEMTDVLRQVAAHYGTTPDLIRGSGRARDIVVPRQVAQYLIRALTDHSLPEIGQFFGRDHSTVMHAVSKITEQMGKDPELAATVNTLRNRIQGKEEEEEVGALEHHHHHH,not soluble
3,MRKPILAALTLAGLGLAQEFITIGSGSTTGVYFPVATGIAKLVNDANVGIRANARSTGGSVANINAINAGEFEMALAQNDIAYYAYQGCCIPAFEGKPVKTIRALAALYPEVVHVVARKDAGIRTVADLKGKRVVVGDVGSGTEQNARQILEAYGLTFDDLGQAIRVSASQGIQLMQDKRADALFYTVGLGASAIQQLALTTPIALVAVDLNRIQAIAKKYPFYVGFNIPGGTYKGVDVTTPTVAVQAMLIASERLSEETVYKFMKAVFGNLEAFKKIHPNLERFFGLEKAVKGLPIPLHPGAERFYKEAGVLK,soluble
4,MRKWQCVVCGFIYDEALGLPEEGIPAGTRWEDIPADWVCPDCGVGKIDFEMIEIA,soluble
5,MRLEIPNHTERFGVVRLHEVQRILELDSGRVRDESPAVGLRRLDDADLRDVLEQTAIVVPTRNERLKLLEGVLSGIPHEALILVASNSSPDRFQMERDLLEEFAHLTERPALIFHQKDPALAEALRAGGYPHPIGEDGLVRSGKAEGMILALVFAALSGRRYVGFIDADNYFPGAVWEYVRAYAAGFLMAKTPFAMVRILWRYKPKLTEDEGVVFRRYGRVSERNNRALNQLIGGVSGFETDVVKTANAGEHAMSLGLALRLPLASGYAVEPQELVSLLELYGGVFPLEDEEVLQHGVEIFQIETRNPALHENKGDEHIRDMLLACLATVYHSKLATEEVRQSVLEELQAAGALAPGEEPPPPVLYPPLSSLDLQAVRKALRGHFSRFRVP,soluble
6,MRLEVFCEDRLGLTRELLDLLVLRGIDLRGIEIDPIGRIYLNFAELEFESFSSLMAEIRRIAGVTDVRTVPWMPSEREHLALSALLEALPEPVLSVDMKSKVDMANPASCQLFGQKLDRLRNHTAAQLINGFNFLRWLESEPQDSHNEHVVINGQNFLMEITPVYLQDENDQHVLTGAVVMLRSTIRMGR,soluble
7,MRLFHTSDWHLGQNLHGQERDFEHACFLTWLLARLAERQPDVLLIAGDIFDTVNPPVKAQERLYDFIVNAHEQQPLLTIVMIAGNHDSGSRIELPAPLMRRLRTHALGRVMWLNDGVLDAERLLLPLPDANGDIKAWCLALPFLRPAEVTGPTLGDDYLRGIGRVHELLIDAANLKRQPGQALIAISHAHMAGGSVSEDSERSLIIGNAEALPASLFGPSITYVALGHLHKPQRVNGEERIRYSGSPIPLSFSEIGYQHQILEINCDGDTLTSVEPCLIPRAVNLQRLGPAPLADLLVQLKSLPDIDLLADPDRQPWLEVRVRLDEPQPDLRNQIETALQGKAVRLVRIGAEYAGKGSADGSDGEAGLIELDQLTPQELFSRAWQDNFGSEVDEQTLTDFATLLREVQQESEQP,not soluble
8,MRLFTPEAMREADRKAVERGYPSLLLMEWAGMKAARVYLELFGKAPALVLAGKGNNGGDGLVLARHLLLEGVGVRVYAAGGQTGDALLALQALLAHGVEVRPLEEASFREGEVVVDALFGTGLKGPLTDFYAELVERVNRAGLPVLALDLPSGLPFSPHVRATATVAFAALKTPHLFQREACGKLYLAEIGLPKPLLEREDLPEVASPEALRPLLPRRPLTAHKGSVGRVGVLGGYQGEDLRYAGAPLLAALGAYRMGAGLVHLVAPEGTPLEPLEAVFHPVPSPALPPLKAEALAVGMGGGPWGRAWALKALEARLPTVLDADALHPEVAEAYRKAGVPAVLTPHAGEAGRLLGISPEEVAKDPLGAARALAERTGLAVVLKGNPTVVAEGERLSVNPTGNPALATGGTGDVLSGAIAALLAAGLRPFDAARLGVFLHGLAGDLLAEEKGVGLLAREVAEALPRARRLLQEGRVPPAFFPR,soluble
9,MRLGICSHTLCPPIEGNIKQHLHNPMKEEEFNELKQNLDSYTPLLPESVTDYFMEKAGVVTSDQSVKKLVSLLAHKFVTDIAVSSFQYHRINQKAAQKDKRFAKEKKPTFQLVDLEKALEEVGISISRPHYYM,not soluble
10,MRLLIVLSALLIPCLAQLSEDSSELEFGGQQAQRPSPDGPLFPRFLMHVPRFARKEFFDIVSNDQLSQDQQNEQLTIWAKAFNVTDEFNAWTKKIQEQKEAVSKNVEAVASNITTVYTQLEEILSNSNLTRRDQHDQIRKLATTFPREVRALFFIARNYRPEGRSPIFGQGIGMGKKPQSSMVPFIFQQQQPPMMMFGQQPFMPAGPMMMNRFQQTGSQQNFQSRRGGRGDGPGFVPGTQDNNQRGSGERGQRQNFGPSDNLTNGNQFSKKQFARGPSSMNSDLSENSQHSDSNSQFDFPRGPGGRGGRGQGPDFGPGGQGGRGQGPDFGPQDDFPGRRGSGGPGGRGGRGQGPDFEPQDDFPGRRGSGGPGRRGGRGQGPDFGPQDDFPGRRGSGGPGGRGGRGQGPDFGPGRQGGRGQGPDFGPQDDFSGRRGSGGPGGRGGRGQEPDFGPGGQGGRGQGPDFGPQDDFPGRRGSGGPEGRDGRGQGPDFGPGSQGGRGQDSDSGSQDAFPGRRGSGGPGGRGQGPDFGPQDDFPGRRGSGGPEGRDGRGQGPDFGPGSQGGRGQDSDSGSQDAFPGRRGPGGPGGLGGRGQGPDFGPGGQGDRGQGPDFGARSQGNRGQGPAFESRQPRQFDDADTSSAPSQKYFQRQMNSGMRFDQSSGFGMRKSQSTQQNYENFAEN,not soluble
11,MRLLPVTLLLGAVIFVSTKSTCRTRTKPPSTVPMNEVTEAVTTKKASNVTVKPTTCEASWTRVERSIGGWCLKVYNGFVHQDQASQACIRIGAELSGSESSAERAVIARLGKERMLAASDYKFGTIRVGIARPTTTRAWALTDGNNDGGQQGIQWSKGEPQLGPTSGYSHNCALMWIWASTGTSPYEHGKYFHKFVHLLGRTCTEDLFVESVLLDF,not soluble
12,MRLYWRMPTTTPALRPQDLTETAFAPYGWMLGKPLPAGDDVLRFSNPATDFWQEHVFDTGAGAGRETEVLWVNYRISQPGFDTLEKHLLTQQAIVPLTGAIVQIVARSAFDGSPDLASLAAFVVPPGQGICMRPGCWHATRISGGEVTCLMLTRRSTTLDLVRHLHGEPARESEIVAIVPHGLDLPARPTAEGPAPHGRLEHHHHHH,not soluble
13,MRMKQTIPSSYVGLKINEWYTHIRQFHVAEAERVKLEVEREIEDMEEDQDLLLYYSLMEFRHRVMLDYIKPFGEDTSQLEFSELLEDIEGNQYKLTGLLEYYFNFFRGMYEFKQKMFVSAMMYYKRAEKNLALVSDDIEKAEFAFKMAEIFYNLKQTYVSMSYAVQALETYQMYETYTVRRIQCEFVIAGNYDDMQYPERALPHLELALDLAKKEGNPRLISSALYNLGNCYEKMGELQKAAEYFGKSVSICKSEKFDNLPHSIYSLTQVLYKQKNDAEAQKKYREGLEIARQYSDELFVELFQFLHALYGKNIDTESVSHTFQFLEEHMLYPYIEELAHDAAQFYIENGQPEKALSFYEKMVHAQKQIQRGDCLYEI,not soluble
14,MRMRLMLLGGGNALGQALIRLGAEEDIAFLAPRPPENGWAPSSLTQLLDDHRPDALVNLAYYFDWFQAESVSEQRLAQQERAVERLAELCQHHQITLVQPSSYRVFDGSRATAYSEKDEPVPLGLRGQALWRIEQSVRAACPQHVLLRFGWLLDESIDGALGRFLTRAEQPQELLLADDRRGNPTPVDDAARVILSVLKQLDCNAPLWGTYHYAGNEATTPLALGQAILAEAGQYRQLAVQAPTPQAHAARPDASEEPQHAVLACKKILHTFGIKPRAWRAGLPPLLDRFYRHG,not soluble
15,MRNFDLSPLYRSAIGFDRLFNHLENNQSQSNGGYPPYNVELVDENHYRIAIAVAGFAESELEITAQDNLLVVKGAHADEQKERTYLYQGIAERNFERKFQLAENIHVRGANLVNGLLYIDLERVIPEAKKPRRIEIN,not soluble
16,MRNIYDLANELERGIRALPEYKNLVEKKEAIATDAEASALFKEFTDFQEDFYAKMQAGTMPTAEEQAAVQELGQKVEANALLKEYLTAQQSLSVYLNDIERIIFKPLQELNN,not soluble
17,MRNLSDRAKFESMINSPSKSVFVRNLNELEALAVRLGKSYRIQLDQAKEKWKVK,not soluble
18,MRNLTFLTRCKPLAASVLALMLLGGAAKSFANNDLPDLGTAAVNTFSLEKEMIYGDAYMRVIRSSAPMLNDPVLSQYLTELGNKLVAHATGVKTPFYFFLLQNDEINAFAFFGGHVAVHTGLFLNADNESELASVLGHEITHVTQRHLARSLEAQQKTGPATVAGLLGAILLTIAVPQAGMAALATTQAMATQSKINYTRLHEKEADRIGMQILVDAGFDPNASAEFFGKLASRYRFTTTPPQMLLTHPLPESRISEARDRAQQYPHRYVPDNLNFQLAKARIQVRFSSFSDDAVLSMFEKQLNKQTYGFKEAALYGKALALFRLKKFDESEKIVDELLKIDDNNLFYIDTKTDLLNERKDYAQAIKLLEAQRNLKPTSQVINANLANIYIEAGEPAKAIPLLEDMIFLDKQNQLPYQLLNLAYKKLGNPGMEYFSNAELMALGANYKGAIDQLNFAYRASEGNQLQLARIEARIRQFKQADREMDALKLEHHHHHH,not soluble
19,MRNQELARIFEEIGLMSEFLGDNPFRVRAYHQAARTLYDLDTPIEEIAEKGKEALMELPGVGPDLAEKILEFLRTGKVRKHEELSRKVPRGVLEVMEVPGVGPKTARLLYEGLGIDSLEKLKAALDRGDLTRLKGFGPKRAERIREGLALAQAAGKRRPLGAVLSLARSLLEAIRALPGVERAELCGSARRYKDTVGDLDFLVASREGERAVEGFVRLPQVKEVYAKGKERATVFLKNGLQVDLRVVPPESYGAGLQYLTGSKAHSIRLRALAQEKGLKLSEYGVFRGEKRIAGETEEEVYAALGLPWIPPPLREDQGEVEAALEGRLPKLLELPQVKGDLQVHSTYSDGQNTLEELWEAAKTMGYRYLAVTDHSPAVRVAGGPSPEEALKRVGEIRRFNETHGPPYLLAGAEVDIHPDGTLDYPDWVLRELDLVLVSVHSRFNLPKADQTKRLLKALENPFVHVLAHPTARLLGRRAPIEADWEAVFQKAKEKGVAVEIDGYYDRMDLPDDLARMAYGMGLWISLSTDAHQTDHLRFMELAVGTAQRAWIGPERVLNTLDYEDLLSWLKARRGV,soluble
